Substrate in this data set: O=P(O)(O)O[C@H]1O[C@H](CO)[C@@H](O)[C@H](O)[C@H]1O
The data set can be described thus: phosphate release (molybdate colorimetry), Michaelis-Menten fit. The data set is classed as biochemical, Lachnoclostridium phytofermentans. The conditions noted are these: synthetic reaction, donor, pH 7.0, 30 °C, acceptor not stated. An excerpt:
phosphate release (molybdate colorimetry), Michaelis-Menten fit on LpSOGP

B1: LpSOGP (Lachnoclostridium phytofermentans ISDg) (protein)
chain: MILKTLSAPIILENSNSTFTFLPGGDNFEWIHESIMINAFQGNTLDGSTNNLYLRIYKDNSLAFYPLIGMNSKSTIKSGTSTLIFEGTAEDISYTVTFRLTPYGIWFWDISLSGNCNKADIIYSQDIGVGTKGSVNSNELYLAQYLGHSIFQGDYGYVICSRQNMAQGDLFPYLQQGSLGIRSIAYSTDGTQFFGLSYKKTNIPEALYGDLPSKNKQYELAHTALQTEAFSLSGTKQFSFYGICKTNHPEVIREIEYIQELEKAYAYHESGEILPVNVPTLQNIGAPYASSRWDAKQVEHYFPKRLLEEKEEEALLSFFTPEKSHVVLQDKELTTERPHGHILMTNFDVTKVPQGVVSSTNYMYGAFNCQFVVGNTTYNKLLSNHRGLLNIQKDSGQRIFIKIGDCYRQLTLPAAYEMNVAGSTWYYQLDEDVLIITSFAMYNRPEIVLKVQSLGHKKYDFIVTHQLTVGPNEYENEIKLTREGNILQLSPTDPVVTNHFYPELSFRMRIPEDCTLSDDSIFFHNNTTINPSLLSIEILQKSSFDIVMQGFDTGNVIPFLDQYDYKEQLEAYRIYYDQLVCNFKLSAPDKIPLSAEKLNAIIHWYAHDALIHFASPHGLEQSGGAAWGTRDVCQGPIEFFLTTGHFDLVRHILITLYSHQIEGGFEWPQWFMFDHYPIHQEDCHGDVVFWPLKAISDYIQATGDTSILNELVDYRTAKDALPTNQPETILIHIKRAVTTIKNRYLSGTALISYAGGDWDDTLQPANSELKENLVSAWTQALAEQTLELLCSAIKGIDHDFSKELSHMANDIRTSFYQYLIKDGVIAGFLYRESEEHMKYMLHPDDTESSIHYRLLPLTRSIIAQLADFKLATRNLEIIDEHLACPDGVRLMDHPASYSGGISKIFLRAEQAANVGREISLQYVHAHIRYIEALATMGLSKKAWDALMRINPILLTDYVPNALTRQSNVYFSSSEGCFDDRYEYAKNFDKLRTGDINVKGGWRLYSSGPGIYIRRIIADLLGIRFGHNVIHIDPVVTKELDGVTLQFTCFGKTVFFTYHVDDTMDKHICVKSNNNILPGDNLNNIYRDGGIQIAKDVFLSAAMSDNNFHIYVKN
notes: full length with C-terminal His6 tag (pET28a, kept); E. coli BL21(DE3); theoretical mass 169640 Da as printed; monomer; structure residues 1-1113
As usually defined, the Km is the substrate concentration at which the rate is half of its maximum. What is called kcat is the number of substrate molecules converted per active site and unit of time at saturation. As a reminder, the kcat/Km is the turnover number divided by the Michaelis constant. With B1, the Michaelis-Menten constant (Km) is 2600 ± 300 µM, the kcat worked out at 28 ± 1 s⁻¹ and the kcat/Km is 11000 ± 1000 M⁻¹ s⁻¹.
